Data taken from the supplement of paper PMC9876800.

Test system: peptide library, one residue held at a place counted from the S/T acceptor
Assay: relative phosphorylation of the sub-library (ratio to the mean residue at this position); higher = residue favoured
Conditions: human
Method in brief: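 Relative sub-library phosphorylation is the ratio of each sub-library's signal to the mean residue at that position. The signal came from phosphorimaging of spots on streptavidin membranes, quantified by densitometry, after purified recombinant kinases reacted with biotinylated degenerate peptide sub-libraries in 384-well plates. Reactions held 50 μM peptide and 50 μM ATP spiked with γ-32P-ATP for 90 min under kinase-specific conditions.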

Chain of NUAK2, construct: Full length (Q9H093 whole entry, looked up): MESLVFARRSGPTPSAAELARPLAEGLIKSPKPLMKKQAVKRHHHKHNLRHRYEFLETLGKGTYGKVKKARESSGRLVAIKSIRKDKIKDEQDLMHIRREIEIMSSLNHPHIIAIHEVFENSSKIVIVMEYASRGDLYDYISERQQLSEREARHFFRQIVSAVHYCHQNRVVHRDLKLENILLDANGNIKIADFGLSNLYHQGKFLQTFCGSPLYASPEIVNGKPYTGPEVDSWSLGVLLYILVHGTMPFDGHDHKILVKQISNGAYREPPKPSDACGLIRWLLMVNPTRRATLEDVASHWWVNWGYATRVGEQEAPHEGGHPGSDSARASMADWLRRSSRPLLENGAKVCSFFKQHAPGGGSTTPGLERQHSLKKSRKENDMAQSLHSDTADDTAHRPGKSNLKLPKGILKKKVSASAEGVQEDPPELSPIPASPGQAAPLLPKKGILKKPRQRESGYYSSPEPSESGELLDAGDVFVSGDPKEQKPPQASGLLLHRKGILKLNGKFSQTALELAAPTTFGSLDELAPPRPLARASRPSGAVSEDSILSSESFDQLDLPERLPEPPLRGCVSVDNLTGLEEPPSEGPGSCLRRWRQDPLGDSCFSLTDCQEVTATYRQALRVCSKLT
Chain of IRAK4, construct: aa104-end (Q9NWZ3 104-460, looked up): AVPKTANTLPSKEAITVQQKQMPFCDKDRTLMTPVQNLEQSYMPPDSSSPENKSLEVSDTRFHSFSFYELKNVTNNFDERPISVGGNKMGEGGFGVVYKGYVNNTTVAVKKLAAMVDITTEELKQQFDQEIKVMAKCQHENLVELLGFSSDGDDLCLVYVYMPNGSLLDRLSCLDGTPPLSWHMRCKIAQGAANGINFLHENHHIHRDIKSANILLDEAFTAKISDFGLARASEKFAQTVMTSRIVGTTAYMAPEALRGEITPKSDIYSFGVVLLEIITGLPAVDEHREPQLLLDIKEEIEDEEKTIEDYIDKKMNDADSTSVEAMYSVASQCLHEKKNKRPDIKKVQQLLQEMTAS

IRAK4, construct: aa104-end (from UniProt Q9NWZ3)
relative phosphorylation
Conditions	at +1	at +2	at +3	at +4	at -1	at -2	at -3	at -4	at -5
A fixed	1	0.837	0.672	0.783	0.78	1.05	0.954	1.13	1.15
D fixed	0.163	0.147	0.24	0.423	0.303	0.404	0.555	0.603	0.602
E fixed	0.314	0.164	0.217	0.405	0.247	0.405	0.507	0.619	0.554
F fixed	1.05	1.27	1.4	0.77	0.886	0.903	0.885	0.97	0.895
G fixed	1.13	0.45	0.698	0.935	0.636	1.31	1.36	1.22	1.29
H fixed	1.07	1.13	1.49	1.26	1.28	1.06	1.05	1.01	1.15
I fixed	0.92	1.42	1.33	0.897	0.774	0.842	0.755	0.742	0.89
K fixed	1.94	1.43	1.56	1.89	2.3	1.23	1.53	1.46	1.52
L fixed	0.83	1.05	1.24	0.85	0.877	1.23	0.935	0.852	0.774
M fixed	1.2	1.16	1.15	1.01	1	1.57	1.03	0.907	0.837
N fixed	0.705	0.669	0.651	1.04	1	1.14	1.1	1.14	0.997
P fixed	0.139	0.406	0.252	0.961	0.666	1.04	1.11	1.12	1.22
Q fixed	1.34	0.862	0.919	0.983	0.973	0.979	0.964	0.864	0.866
R fixed	2.58	1.99	1.76	1.83	2.31	1.34	1.65	1.5	1.59
V fixed	1.08	1.47	1.18	0.778	0.942	0.811	0.775	0.891	0.812
W fixed	0.778	1	1.11	1.25	0.755	0.814	0.968	1.01	0.881
Y fixed	0.755	1.53	1.12	0.942	1.26	0.878	0.864	0.957	0.966
pThr fixed	0.276	0.274	0.341	0.33	0.352	0.678	0.866	0.752	0.87
pTyr fixed	0.203	0.177	0.441	0.323	0.276	0.545	0.65	0.539	0.763

MAP3K2, construct: Full length (from UniProt Q9Y2U5)
relative phosphorylation
Conditions	at +1	at +2	at +3	at +4	at -1	at -2	at -3	at -4	at -5
A fixed	1.01	0.873	0.802	1.04	1.04	1.2	0.975	1.07	1.12
D fixed	0.302	0.413	0.63	0.567	1.08	1.6	1.61	1.5	1.37
E fixed	0.296	0.344	0.477	0.691	0.935	0.953	1.53	1.43	1.16
F fixed	0.82	0.696	1.46	0.775	0.673	1.1	0.782	1.01	0.923
G fixed	0.868	0.663	0.865	0.981	1.41	1.27	1.65	1.23	1.22
H fixed	0.954	2.2	1.06	0.983	1.36	1.1	0.891	1.02	1.06
I fixed	1.59	0.632	1.09	0.877	0.549	0.82	0.608	0.73	0.828
K fixed	0.721	1.51	1.09	1.9	1.19	0.765	0.988	0.946	1.07
L fixed	1.29	0.694	1.16	0.918	0.904	0.704	0.698	0.749	0.743
M fixed	1.82	1.02	1.1	0.947	1.11	0.866	0.937	0.898	0.869
N fixed	0.614	0.902	0.914	0.703	1.17	0.829	1.08	0.96	0.883
P fixed	0.409	0.403	0.574	1.25	0.643	0.838	1.03	1.02	0.992
Q fixed	1.02	1	0.905	1.12	1.11	0.853	0.817	0.793	0.751
R fixed	1.09	1.94	1.32	1.68	1.39	0.757	1.18	0.978	0.95
V fixed	1.46	0.828	0.856	0.816	0.726	0.979	0.698	0.849	1.02
W fixed	1.81	0.986	1.51	0.909	0.662	0.919	0.747	0.952	1.08
Y fixed	0.926	1.89	1.2	0.853	1.04	1.46	0.778	0.868	0.959
pThr fixed	0.643	0.47	0.597	0.761	0.708	1.3	1.91	1.23	1.59
pTyr fixed	0.42	0.412	0.645	0.546	1.08	2.07	1.3	1	1.21

NUAK2, construct: Full length (from UniProt Q9H093)
relative phosphorylation
Conditions	at +1	at +2	at +3	at +4	at -1	at -2	at -3	at -4	at -5
A fixed	0.911	0.916	0.886	0.691	1.22	1.89	0.724	1.15	0.804
D fixed	0.559	0.547	1.29	0.509	0.855	0.865	0.378	0.554	0.385
E fixed	0.598	0.535	0.635	0.498	0.549	0.503	0.514	0.867	0.435
F fixed	1.71	0.654	1.16	0.862	0.705	0.722	0.461	0.764	1.07
G fixed	1.18	1.14	0.712	0.702	1.42	0.979	0.725	0.862	0.603
H fixed	0.898	1.35	1.61	0.907	0.911	0.659	1.01	0.912	0.605
I fixed	0.691	0.99	0.713	2.05	0.45	0.761	0.452	1	2.27
K fixed	1.08	1.66	1.26	1.32	1.44	0.975	2.61	1.59	1.3
L fixed	0.739	0.839	0.705	1.87	0.84	0.528	0.541	0.858	1.73
M fixed	1.24	0.909	0.828	1.55	1.07	0.83	0.73	1.37	1.02
N fixed	1	1.07	1.44	0.74	1.26	2.66	0.566	0.628	0.435
P fixed	0.896	0.727	0.529	0.679	1.42	0.602	0.88	0.86	0.735
Q fixed	1.16	0.745	0.766	0.624	1.09	1.23	0.739	0.954	0.613
R fixed	1.51	2.48	1.69	1.1	1.65	1.23	5.28	1.8	1.66
V fixed	0.763	0.927	0.614	1.07	0.581	1.26	0.443	1.13	1.74
W fixed	0.868	0.717	1.07	0.931	0.557	0.598	0.471	0.837	0.687
Y fixed	1.19	0.785	1.09	0.896	0.962	0.709	0.474	0.856	0.894
pThr fixed	1.13	1.29	0.495	0.708	0.389	0.808	0.725	0.919	0.653
pTyr fixed	0.814	0.59	0.71	0.605	1.03	0.477	0.531	0.602	0.76
